The values below come from US20040223970A1 (published 2004).

In the experiment the target is T1, SLC15A2 (Solute carrier family 15 (H+/peptide transporter), member 2) (human, UniProt Q16348 1-729).
T1 construct: Expressed from its cDNA on stably transfected 3T12 and Calu6 cells (FACS, saporin killing), and endogenous in human prostate sections (IHC); also called SLC15A2 protein; SLCA15A2
T1 sequence: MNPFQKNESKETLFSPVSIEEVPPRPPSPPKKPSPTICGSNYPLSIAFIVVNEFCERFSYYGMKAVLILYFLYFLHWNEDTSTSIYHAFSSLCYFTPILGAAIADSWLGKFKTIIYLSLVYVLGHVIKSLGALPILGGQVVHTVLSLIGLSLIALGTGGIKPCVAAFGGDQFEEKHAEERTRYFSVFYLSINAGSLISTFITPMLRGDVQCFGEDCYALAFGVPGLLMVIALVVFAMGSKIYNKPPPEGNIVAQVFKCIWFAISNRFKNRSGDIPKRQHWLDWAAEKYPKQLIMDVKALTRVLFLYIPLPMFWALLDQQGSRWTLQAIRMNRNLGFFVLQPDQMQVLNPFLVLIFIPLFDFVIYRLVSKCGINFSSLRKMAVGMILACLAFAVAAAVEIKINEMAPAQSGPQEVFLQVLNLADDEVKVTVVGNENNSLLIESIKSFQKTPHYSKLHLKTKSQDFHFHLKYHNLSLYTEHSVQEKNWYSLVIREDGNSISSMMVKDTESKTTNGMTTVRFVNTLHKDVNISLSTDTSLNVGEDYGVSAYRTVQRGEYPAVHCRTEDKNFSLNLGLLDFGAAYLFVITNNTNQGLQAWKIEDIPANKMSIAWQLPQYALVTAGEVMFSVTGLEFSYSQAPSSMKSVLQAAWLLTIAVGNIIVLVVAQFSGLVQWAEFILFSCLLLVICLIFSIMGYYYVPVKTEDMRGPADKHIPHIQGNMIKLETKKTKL
Briefly: FACS, hybridoma supernatant on SLC15A2 expressing cells. Background: Flow cytometry measures light scatter and fluorescence of single cells or particles in a stream.

B1: PDO5 #811 monoclonal antibody (antibody, V domains shown)
VH: QVQLQQPGAELVRPGASVKLSCKASGYTFTSYWLNWVRQRPGQGLEWIGMIDPSDSETHYNQMFKDKATLTVDKSSSTAYMQLSSLTSEDSAVYYCTSQGVPVPFDYWGQGTTLTVSS
VL: DVVMTQTPLSLPVSLGDQASISCRSSQSLVHSNGNTYLHWYLQKPGQSPKLLIYRVSNRFSGVPDRFSGSGSGTDFTLKISRVEAEDLGVYFCSQSTHVPWTFGGGTKLEIKR
notes: Mouse monoclonal antibody from a hybridoma, used as hybridoma supernatant; also called clone 811
B1: the binding result was “binds”.

B2: PDO5 #810 monoclonal antibody (antibody, V domains shown)
VH: EVQLQQSGPELVKPGASMKISCKASGYSFTGYTMNWVKQSHGKNLEWIGLINPYNGGINYNQKFKGKATLTVDKSSSTAYMELLSLTSEDSAVYYCTRRAYYGNYGTMDYWGQGTSVTVSS
VL: ENVLTQSPASMSASPGEKVTMTCSASSSVSYMHWYQQKSTTSPKLWIYDTSNLASGVPGRFSGSGSGNSYSLTISNMEAEDVATYYCFQGSGYPLTFGAGTKLELKR
notes: also called clone 810; Clone 810 supernatant
In the case of B2, the binding result is given as “binds”.
